By IC50 is commonly meant the concentration that inhibits the measured activity by half. One may read the Km as the substrate concentration at which the rate is half of its maximum.

The source of these data is paper PMC9436119, “Alkaline ceramidase catalyzes the hydrolysis of ceramides via a catalytic mechanism shared by Zn^2+-dependent amidases” (PLoS ONE, 2022).

In data set [1] the target is T1, alkaline ceramidase 3 (ACER3) (Homo sapiens, UniProt Q9NUN7).
T1 sequence (Q9NUN7 1-267): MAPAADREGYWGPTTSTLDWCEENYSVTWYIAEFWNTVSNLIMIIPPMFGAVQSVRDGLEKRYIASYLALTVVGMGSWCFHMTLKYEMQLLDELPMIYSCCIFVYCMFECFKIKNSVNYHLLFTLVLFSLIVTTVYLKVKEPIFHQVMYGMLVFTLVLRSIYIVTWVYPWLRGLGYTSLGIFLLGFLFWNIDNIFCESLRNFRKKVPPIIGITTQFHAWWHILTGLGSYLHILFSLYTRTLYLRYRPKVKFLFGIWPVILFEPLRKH
As to the kind of experiment: microsomal ceramidase activity assay with NBD-C12-PHC, HPLC fluorescence; Lineweaver-Burk kinetics. The format is biochemical.

Substrate in data set [2]: CCCCCCCCCCCCCC[C@@H](O)[C@@H](O)[C@H](CO)NC(=O)CCCCCCCCCCCNc1ccc([N+](=O)[O-])c2nonc12
As to the kind of experiment: cells, lysate or membranes. The format is biochemical, Homo sapiens.

Substrate in data set [3]: CCCCCCCCCCCCCC[C@@H](O)[C@@H](O)[C@H](CO)NC(=O)CCCCCCCCCCCNc1ccc([N+](=O)[O-])c2nonc12
Briefly: Michaelis-Menten kinetics (KM), microsomal assay with HPLC fluorescence. As to conditions: Zn2+ (Ca2+ in buffer) Zn2+ active site. The format is biochemical, Homo sapiens.

For `CC(/C=C/C(=O)NO)=C\[C@@H](C)C(=O)c1ccc(N(C)C)cc1` [TSA, Trichostatin A], the 50% inhibitory concentration (IC50) in data set [1] turned out to be 71.4 µM.

B1: alkaline ceramidase 3 (ACER3) (Homo sapiens) (protein)
chain: MAPAADREGYWGPTTSTLDWCEENYSVTWYIAEFWNTVSNLIMIIPPMFGAVQSVRDGLEKRYIASYLALTVVGMGSWCFHMTLKYEMQLLDELPMIYSCCIFVYCMFECFKIKNSVNYHLLFTLVLFSLIVTTVYLKVKEPIFHQVMYGMLVFTLVLRSIYIVTWVYPWLRGLGYTSLGIFLLGFLFWNIDNIFCESLRNFRKKVPPIIGITTQFHAWWHILTGLGSYLHILFSLYTRTLYLRYRPKVKFLFGIWPVILFEPLRKH
notes: FLAG-tagged open reading frame of wild-type ACER3, in microsomes of yeast Δypc1Δydc1 cells
As for B1, the Km in data set [2] (Zn2+ (Ca2+ in buffer) Zn2+ active site (His81, His217, His221, Asp92, Ser77)) came out at 15.48 ± 1.248 µM.

B2: alkaline ceramidase 3 (ACER3) (Homo sapiens; S77A) (protein)
chain: MAPAADREGYWGPTTSTLDWCEENYSVTWYIAEFWNTVSNLIMIIPPMFGAVQSVRDGLEKRYIASYLALTVVGMGAWCFHMTLKYEMQLLDELPMIYSCCIFVYCMFECFKIKNSVNYHLLFTLVLFSLIVTTVYLKVKEPIFHQVMYGMLVFTLVLRSIYIVTWVYPWLRGLGYTSLGIFLLGFLFWNIDNIFCESLRNFRKKVPPIIGITTQFHAWWHILTGLGSYLHILFSLYTRTLYLRYRPKVKFLFGIWPVILFEPLRKH
notes: FLAG-tagged ACER3 S77A, in microsomes of yeast Δypc1Δydc1 cells
Consider B2, for which the Km in data set [3] amounted to 38 µM.

B3: alkaline ceramidase 3 (ACER3) (Homo sapiens; S77C) (protein)
chain: MAPAADREGYWGPTTSTLDWCEENYSVTWYIAEFWNTVSNLIMIIPPMFGAVQSVRDGLEKRYIASYLALTVVGMGCWCFHMTLKYEMQLLDELPMIYSCCIFVYCMFECFKIKNSVNYHLLFTLVLFSLIVTTVYLKVKEPIFHQVMYGMLVFTLVLRSIYIVTWVYPWLRGLGYTSLGIFLLGFLFWNIDNIFCESLRNFRKKVPPIIGITTQFHAWWHILTGLGSYLHILFSLYTRTLYLRYRPKVKFLFGIWPVILFEPLRKH
notes: FLAG-tagged ACER3 S77C, in microsomes of yeast Δypc1Δydc1 cells
Turning to B3, in data set [2] (Zn2+ (Ca2+ in buffer) Zn2+ active site), the Km stood at 66.43 ± 6.143 µM.
